The record followed here is patent US20150191541A1 (NEOTOPE BIOSCIENCES, published 2015).

Assay [1] deals with T1, human islet-amyloid polypeptide (IAPP) (human).
T1 construct: also called hIAPP; amylin
T1 peptide: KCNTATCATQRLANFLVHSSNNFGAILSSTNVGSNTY
As to the kind of experiment: ELISA screen of hybridomas on IAPP. (In general: An ELISA detects its analyte on a solid surface through an enzyme-linked reagent.)

Assay [2] concerns the target T2, peptide of amino acid residues 1-10 of IAPP (human, disulfide 2-7).
T2 construct: also called IAPP 1-10
T2 peptide: KCNTATCATQ
As to the kind of experiment: epitope mapping.

The target in assay [3] is T3, rat IAPP (rat, UniProt P12969 38-74).
T3 construct: also called rat islet-amyloid polypeptide
T3 peptide (looked up): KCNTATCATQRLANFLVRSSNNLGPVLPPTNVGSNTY
As to the kind of experiment: Biacore SPR, antibody captured on anti-human CM5 chip, rat IAPP as analyte. As to the method:
The affinity of various combinations of 8A9 humanized heavy chains and humanized light chain proteins for hIAPP was analyzed on a Biacore instrument. Biacore analysis was performed by preparing an anti-human CM5 chip following the protocol provided in the kit. The 8A9 antibody was captured such that the maximum binding of rat IAPP would not exceed 20-30 RU. […] Data was blank subtracted to both an irrelevant sensor not containing 8A9 and 0 IAPP concentration to account for the dissociation of 8A9 from the anti-human capture. Data was then analyzed using a global 1:1 fit.

Positions of bridges follow the written chain, without caps; N, C: chain ends. No end group written: not given here.

B1: murine 8A9 antibody (antibody, V domains shown)
VH: QVQLKESGPGLVAPSQSLSITCTVSGFSLTNYAVHWVRQPPGKGLEWLGVIWSGGNTNYNSALMSRLRISKDNSQSQVFLKMNSLQTDDTGMYYCARDRGYYGGIYGFANWGQGTLVTVSS
VL: DIQMTQSPSSLSASLGKRVSLTCRASQEISGYLSWLQQKPDGTIKRLIYAASTSDSGVPKRFSGSRSGSDYSLTISSVESEDFADYYCLQYADYPYTFGGGTKLEIK
notes: Mouse hybridoma antibody; also called m8A9; mouse 8A9 antibody
Take B1: the binding result in assay [1] and in assay [2] was “binds” each time.

B2: humanized 8A9 antibody version H7L3 (antibody, V domains shown)
VH: QVQLQQSGPGLVKPSQSLSLTCTVSGFSLTNYAVHWVRQPPGKGLEWLGVIWSGGNTNYNSALMSRLTISKDNSQNQVFLKLNSLTTADTGVYYCARDRGYYGGIYGFANWGQGTLVTVSS
VL: DIQMTQSPSSLSASVGDRVTITCRASQEISGYLSWLQQKPGKAIKRLIYAASTSDSGVPSRFSGSRSGSDYTLTISSLQPEDFADYYCLQYADYPYTFGGGTKVEIK
notes: also called H8A9-H7L3
Consider B2, for which, in assay [3], the “fold difference of affinity against murine 8A9” value was less than 2 fold.
